Assay results reported in patent US20240261333A1 (published 2024).

What was measured:
Assay in all cases: co-IP with anti-FLAG, C-FLAG B3GNT2, mass spectrometry
PKM = molecular target: T1, PKM (human, UniProt P14618 2-531, limits assumed)
T1 construct: also called NP_001193725.1 (+3)
Description: (§1) Cells were plated in 10-cm cell culture dishes and grown to 60-80% confluency. For each condition, two biological replicates were harvested for co-IP. Cells were washed with PBS and 4 mL of lysis buffer (20 mM HEPES, 1% Triton X-100, 150 mM NaCl, 1 mM EDTA, and 10% glycerol) containing protease inhibitor cocktail was added. Cells were scraped and lysate was incubated at 4° C. under rotary agitation for 1 h. Lysate was centrifuged at 14,000×g for 10 min at 4° C. Supernatant was transferred to a new tube and an aliquot was taken as the input. […] For Western blots, 10 μg/mL Chicken Anti-FLAG (Aves labs ET-DY100) and IgY control (R&D Systems AB-101-C) antibodies were biotinylated (Thermo Fisher Scientific 90407) and added to the respective conditions. Lysates with antibodies were incubated at 4° C. under rotary agitation overnight. For each mL of lysate, 50 μL of Pierce Protein A/G Magnetic Beads (Mass spectrometry; Thermo Fisher Scientific 88803) or Pierce Streptavidin Magnetic Beads (Western blot; Thermo Fisher Scientific 88817) was washed twice with lysis buffer. Lysates with antibodies were added to the beads and incubated at 4° C. under rotary agitation for 4 h. Beads were washed with lysis buffer 3 times and resuspended in lysis buffer for storage.
(§2) Magnetic beads were resuspended in 100 mM Tris pH 7.8, reduced, alkylated and digested with trypsin at 37° ° C. overnight. This solution was subjected to solid phase extraction to concentrate the peptides and remove unwanted reagents followed by injection onto a Shimadzu HPLC with fraction collector. Eight fractions were collected and after concentration were injected on a Waters NanoAcquity HPLC equipped with a self-packed Aeris 3 μm C18 analytical column 0.075 mm by 20 cm, (Phenomenex). Peptides were eluted using standard reverse-phase gradients. The effluent from the column was analyzed using a Thermo Orbitrap Elite mass spectrometer (nanospray configuration) operated in a data dependent manner for 54 minutes. The resulting fragmentation spectra were correlated against the known database using Proteome Discover 1.4 (Thermo Fisher Scientific).

LGALS7B = molecular target: T2, LGALS7B (human, UniProt P47929 1-136)
T2 construct: also called NP_001035972.1
T2 sequence (P47929 whole entry): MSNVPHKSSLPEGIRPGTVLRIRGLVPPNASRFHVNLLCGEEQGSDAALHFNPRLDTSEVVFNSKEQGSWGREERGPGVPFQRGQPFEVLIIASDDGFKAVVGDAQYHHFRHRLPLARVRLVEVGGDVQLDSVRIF
Description: as §1, §2

PSMB5 = molecular target: T3, PSMB5 (human, UniProt P28074 60-263)
T3 construct: also called NP_002788.1
T3 sequence (P28074 60-263 limits assumed): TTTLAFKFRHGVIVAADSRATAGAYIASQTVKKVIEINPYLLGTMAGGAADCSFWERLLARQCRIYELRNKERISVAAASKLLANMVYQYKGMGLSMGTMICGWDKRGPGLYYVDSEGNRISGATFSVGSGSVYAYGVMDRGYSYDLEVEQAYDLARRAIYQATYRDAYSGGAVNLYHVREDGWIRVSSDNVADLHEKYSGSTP
Description: as §1, §2

CLTC = molecular target: T4, CLTC (human, UniProt Q00610 2-1675, limits assumed)
T4 construct: also called NP_001275582.1 (+2)
T4 sequence (Q00610 2-1675 limits assumed): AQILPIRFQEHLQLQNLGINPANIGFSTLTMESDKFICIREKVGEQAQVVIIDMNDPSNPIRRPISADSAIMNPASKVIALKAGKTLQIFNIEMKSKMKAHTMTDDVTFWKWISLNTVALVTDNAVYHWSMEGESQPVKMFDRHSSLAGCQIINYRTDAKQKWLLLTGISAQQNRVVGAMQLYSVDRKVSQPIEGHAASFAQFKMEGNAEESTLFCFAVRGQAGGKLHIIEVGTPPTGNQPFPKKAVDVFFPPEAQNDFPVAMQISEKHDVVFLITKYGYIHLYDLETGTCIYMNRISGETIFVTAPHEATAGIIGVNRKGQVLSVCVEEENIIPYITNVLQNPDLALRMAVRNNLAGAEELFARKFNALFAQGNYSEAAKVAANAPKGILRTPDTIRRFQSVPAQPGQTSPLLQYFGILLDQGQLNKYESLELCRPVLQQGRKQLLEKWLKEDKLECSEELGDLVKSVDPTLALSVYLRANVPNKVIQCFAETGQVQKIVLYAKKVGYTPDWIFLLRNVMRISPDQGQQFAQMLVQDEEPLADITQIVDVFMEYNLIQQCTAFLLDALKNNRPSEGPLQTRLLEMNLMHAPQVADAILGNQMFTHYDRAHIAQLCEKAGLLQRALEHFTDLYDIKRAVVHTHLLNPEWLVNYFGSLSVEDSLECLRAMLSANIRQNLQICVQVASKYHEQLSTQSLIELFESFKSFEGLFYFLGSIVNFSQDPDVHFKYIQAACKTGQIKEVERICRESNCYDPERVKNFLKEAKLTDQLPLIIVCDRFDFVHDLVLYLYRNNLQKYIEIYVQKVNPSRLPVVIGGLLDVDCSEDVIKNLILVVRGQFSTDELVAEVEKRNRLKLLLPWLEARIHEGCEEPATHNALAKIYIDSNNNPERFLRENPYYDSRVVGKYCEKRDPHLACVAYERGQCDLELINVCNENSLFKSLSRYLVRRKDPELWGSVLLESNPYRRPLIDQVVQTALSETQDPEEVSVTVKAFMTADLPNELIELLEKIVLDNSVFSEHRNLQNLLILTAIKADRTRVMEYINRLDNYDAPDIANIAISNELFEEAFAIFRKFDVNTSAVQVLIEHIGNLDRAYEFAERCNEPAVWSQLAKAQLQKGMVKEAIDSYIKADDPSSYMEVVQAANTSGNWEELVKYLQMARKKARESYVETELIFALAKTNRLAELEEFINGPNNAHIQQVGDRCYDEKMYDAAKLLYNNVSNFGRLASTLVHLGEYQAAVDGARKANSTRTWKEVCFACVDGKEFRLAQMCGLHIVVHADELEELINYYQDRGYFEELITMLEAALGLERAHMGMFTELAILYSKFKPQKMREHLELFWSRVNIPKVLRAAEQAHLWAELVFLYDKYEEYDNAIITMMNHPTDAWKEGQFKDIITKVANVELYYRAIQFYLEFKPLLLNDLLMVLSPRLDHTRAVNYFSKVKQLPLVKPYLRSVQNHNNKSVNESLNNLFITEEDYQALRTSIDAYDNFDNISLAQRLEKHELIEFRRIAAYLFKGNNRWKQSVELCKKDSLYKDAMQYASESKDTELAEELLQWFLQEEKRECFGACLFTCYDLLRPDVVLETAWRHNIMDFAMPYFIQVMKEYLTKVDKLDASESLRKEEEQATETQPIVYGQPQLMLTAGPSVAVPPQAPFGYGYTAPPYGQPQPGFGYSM
Description: as §1, §2

CPSF7 = molecular target: T5, CPSF7 (human, UniProt Q8N684 1-471)
T5 construct: also called NP_001129512.1 (+5)
T5 sequence (looked up): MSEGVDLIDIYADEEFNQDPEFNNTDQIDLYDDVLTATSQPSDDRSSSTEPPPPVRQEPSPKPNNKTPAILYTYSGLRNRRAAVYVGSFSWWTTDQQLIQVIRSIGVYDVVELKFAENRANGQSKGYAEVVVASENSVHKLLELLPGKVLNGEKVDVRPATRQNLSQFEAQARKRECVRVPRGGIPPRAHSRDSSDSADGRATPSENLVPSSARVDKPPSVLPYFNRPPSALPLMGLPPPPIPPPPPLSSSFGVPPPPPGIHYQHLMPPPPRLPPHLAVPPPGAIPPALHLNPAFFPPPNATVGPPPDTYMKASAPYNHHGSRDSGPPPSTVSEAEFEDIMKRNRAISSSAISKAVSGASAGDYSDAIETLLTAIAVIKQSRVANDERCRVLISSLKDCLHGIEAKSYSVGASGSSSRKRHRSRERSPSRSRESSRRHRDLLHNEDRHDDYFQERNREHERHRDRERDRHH
Description: as §1, §2

HBB = molecular target: T6, HBB (human, UniProt P68871 2-147)
T6 construct: also called NP_000509.1
T6 sequence (P68871 2-147 limits assumed): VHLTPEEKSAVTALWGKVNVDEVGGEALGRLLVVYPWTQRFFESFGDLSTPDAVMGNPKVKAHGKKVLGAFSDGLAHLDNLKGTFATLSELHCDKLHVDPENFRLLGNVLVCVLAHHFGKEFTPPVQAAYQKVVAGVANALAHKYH
Description: as §1, §2

TGM1 = molecular target: T7, TGM1 (human, UniProt P22735 1-817, limits assumed)
T7 construct: also called NP_000350.1
T7 sequence (looked up): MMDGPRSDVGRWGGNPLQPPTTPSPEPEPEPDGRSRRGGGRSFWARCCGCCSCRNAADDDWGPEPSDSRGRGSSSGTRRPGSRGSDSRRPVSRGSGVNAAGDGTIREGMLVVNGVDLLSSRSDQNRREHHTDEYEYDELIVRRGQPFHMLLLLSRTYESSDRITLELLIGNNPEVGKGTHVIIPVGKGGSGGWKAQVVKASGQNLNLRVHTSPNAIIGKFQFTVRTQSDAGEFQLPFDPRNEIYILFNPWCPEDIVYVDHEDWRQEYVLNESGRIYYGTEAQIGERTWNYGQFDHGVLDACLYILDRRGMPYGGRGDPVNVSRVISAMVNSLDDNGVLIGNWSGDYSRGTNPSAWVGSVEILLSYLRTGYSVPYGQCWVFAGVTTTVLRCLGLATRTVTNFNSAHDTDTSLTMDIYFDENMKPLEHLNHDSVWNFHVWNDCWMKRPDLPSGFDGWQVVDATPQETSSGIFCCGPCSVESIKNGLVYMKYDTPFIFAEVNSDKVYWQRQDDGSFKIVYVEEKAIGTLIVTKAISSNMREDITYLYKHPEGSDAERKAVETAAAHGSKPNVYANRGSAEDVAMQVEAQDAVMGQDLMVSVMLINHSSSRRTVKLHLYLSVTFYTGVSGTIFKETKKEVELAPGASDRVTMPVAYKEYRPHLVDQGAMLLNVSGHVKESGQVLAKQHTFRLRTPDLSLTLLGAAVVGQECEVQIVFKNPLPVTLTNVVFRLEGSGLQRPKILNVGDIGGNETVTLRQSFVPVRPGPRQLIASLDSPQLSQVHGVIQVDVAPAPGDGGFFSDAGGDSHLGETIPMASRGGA
Description: as §1, §2

T1 sequence (P14618 2-531 limits assumed): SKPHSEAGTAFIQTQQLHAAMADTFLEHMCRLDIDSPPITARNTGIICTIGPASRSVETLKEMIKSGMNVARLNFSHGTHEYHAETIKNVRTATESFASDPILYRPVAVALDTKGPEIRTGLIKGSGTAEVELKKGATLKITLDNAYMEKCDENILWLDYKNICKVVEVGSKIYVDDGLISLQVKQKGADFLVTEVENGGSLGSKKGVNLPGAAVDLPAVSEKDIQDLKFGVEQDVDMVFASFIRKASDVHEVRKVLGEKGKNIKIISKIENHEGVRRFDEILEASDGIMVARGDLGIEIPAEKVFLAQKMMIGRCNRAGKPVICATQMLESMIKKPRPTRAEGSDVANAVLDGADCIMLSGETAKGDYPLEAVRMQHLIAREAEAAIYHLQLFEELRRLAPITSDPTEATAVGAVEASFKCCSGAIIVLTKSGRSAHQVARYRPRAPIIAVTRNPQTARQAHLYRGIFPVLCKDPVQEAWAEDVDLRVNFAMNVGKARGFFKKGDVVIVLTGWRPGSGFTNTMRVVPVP

Binder	co-IP mass spectrometry count (PKM)	co-IP mass spectrometry count (LGALS7B)	co-IP/MS count, C-term flag (PSMB5)	co-IP/MS count, C-term flag (CLTC)	co-IP/MS count, C-term flag (CPSF7)	co-IP/MS count, C-term flag (HBB)	co-IP/MS count, C-term flag (TGM1)
C-terminal FLAG tagged B3GNT2 (enzyme, human, UniProt Q9NY97 1-397, looked up, FLAG-tagged ORF overexpressed in cells; pulled down from lysate with mouse anti-FLAG; also called C-FLAG B3GNT2; C-term flag; not shown: C-terminal FLAG tag) MSVGRRRIKLLGILMMANVFIYFIMEVSKSSSQEKNGKGEVIIPKEKFWKISTPPEAYWNREQEKLNRQYNPILSMLTNQTGEAGRLSNISHLNYCEPDLRVTSVVTGFNNLPDRFKDFLLYLRCRNYSLLIDQPDKCAKKPFLLLAIKSLTPHFARRQAIRESWGQESNAGNQTVVRVFLLGQTPPEDNHPDLSDMLKFESEKHQDILMWNYRDTFFNLSLKEVLFLRWVSTSCPDTEFVFKGDDDVFVNTHHILNYLNSLSKTKAKDLFIGDVIHNAGPHRDKKLKYYIPEVVYSGLYPPYAGGGGFLYSGHLALRLYHITDQVHLYPIDDVYTGMCLQKLGLVPEKHKGFRTFDIEEKNKNNICSYVDLMLVHSRKPQEMIDIWSQLQSAHLKC	3	4					
C-terminal FLAG tagged B3GNT2 (enzyme, human, UniProt Q9NY97 1-397, looked up, FLAG-tagged ORF overexpressed in A375 cells; pulled down from the lysate with mouse anti-FLAG; also called C-FLAG B3GNT2; C-term flag; not shown: C-terminal FLAG tag) MSVGRRRIKLLGILMMANVFIYFIMEVSKSSSQEKNGKGEVIIPKEKFWKISTPPEAYWNREQEKLNRQYNPILSMLTNQTGEAGRLSNISHLNYCEPDLRVTSVVTGFNNLPDRFKDFLLYLRCRNYSLLIDQPDKCAKKPFLLLAIKSLTPHFARRQAIRESWGQESNAGNQTVVRVFLLGQTPPEDNHPDLSDMLKFESEKHQDILMWNYRDTFFNLSLKEVLFLRWVSTSCPDTEFVFKGDDDVFVNTHHILNYLNSLSKTKAKDLFIGDVIHNAGPHRDKKLKYYIPEVVYSGLYPPYAGGGGFLYSGHLALRLYHITDQVHLYPIDDVYTGMCLQKLGLVPEKHKGFRTFDIEEKNKNNICSYVDLMLVHSRKPQEMIDIWSQLQSAHLKC			0	7	9	0	8
